# Molecular target: human SIRPα (signal regulatory protein alpha), full-length (human) (UniProt P78324)
# Test: cell-based or functional assay
# human SIRPα (signal regulatory protein alpha), full-length (human), sequence (P78324 31-504): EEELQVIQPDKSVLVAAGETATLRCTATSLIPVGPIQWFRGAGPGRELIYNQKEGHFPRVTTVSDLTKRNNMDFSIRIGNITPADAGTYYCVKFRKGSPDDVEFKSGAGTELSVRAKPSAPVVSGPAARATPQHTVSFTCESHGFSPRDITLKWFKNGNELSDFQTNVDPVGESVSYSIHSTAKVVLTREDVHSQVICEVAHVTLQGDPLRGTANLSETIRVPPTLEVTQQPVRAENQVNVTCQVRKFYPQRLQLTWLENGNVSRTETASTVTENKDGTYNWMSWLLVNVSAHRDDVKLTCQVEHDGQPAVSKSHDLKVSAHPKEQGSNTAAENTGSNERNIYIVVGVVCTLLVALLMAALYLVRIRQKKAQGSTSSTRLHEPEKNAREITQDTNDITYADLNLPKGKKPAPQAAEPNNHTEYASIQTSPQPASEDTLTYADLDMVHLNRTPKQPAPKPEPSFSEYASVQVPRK
substance,measurement,value
"hCD47-hFc (human CD47 extracellular Ig-V domain fused to the Fc region of human IgG1), Example 8 (from UniProt Q08722 19-142) (Fc fusion)",inhibition of FSL-1 mediated TNF-α production of human DCs by hCD47-hFc immobilized on anti-human Fc coated plates,78 ng/mL
same,inhibition of SAC-induced IL-23 secretion in human DCs,11 ng/mL
